{"source": "paper PMC4453016", "about": "“Novel Bifunctional Cyclic Chelator for ^89Zr Labeling–Radiolabeling and Targeting Properties of RGD Conjugates” (Molecular Pharmaceutics, 2015)", "key": {"[1]": {"tested_on": "αvβ3 integrin positive M21 and αvβ3 integrin negative M21-L tumor xenografts", "set-up": "species or system BALB/c nude mice", "details": "mouse, in vivo, iv, 1 h", "experimental": "(§1) For the evaluation of biodistribution, four healthy female BALB/c mice (Charles River Laboratories, Sulzfeld, GER) were intravenously injected with [^89Zr]TAFC (∼1.5 MBq/mouse, ∼4 μg of precursor) into the tail vein and sacrificed at 6 h postinjection (p.i.). For the evaluation of tumor uptake of [^89Zr]FSC(succ-RGD)3 female, athymic BALB/c nude mice (Charles River Laboratories) were used. For the induction of tumor xenografts mice were injected subcutaneously with 5 × 10^6 αvβ3 integrin positive M21 cells into the right hind limb and with 5 × 10^6 αvβ3 integrin negative M21-L cells (negative control) into the left hind limb of the same mouse (n = 4). The tumors were allowed to grow until they had reached a volume of 0.3 to 0.6 cm^3. On the day of the experiment [^89Zr]FSC(succ-RGD)3 (∼0.5 MBq/mouse, ∼0.5 μg of peptide) was intravenously injected in the lateral tail vein. Mice were sacrificed by cervical dislocation at 1, 2, and 4 h after injection. Organs (spleen, pancreas, stomach, intestine, kidney, liver, heart, and lung), blood, muscle tissue, bone, and tumors were dissected and weighted. As a comparison, four tumor-bearing mice were intravenously injected in the tail vein with [^68Ga]FSC(succ-RGD)3 (∼0.5 MBq/mouse, ∼0.5 μg of precursor) and sacrificed at 1 h p.i. Activity of the different samples was measured in the gamma counter. Results were expressed as percentage of injected dose per gram tissue (% ID/g)."}, "[2]": {"tested_on": "M21 cells (αvβ3 integrin positive)", "test": "Internalization assay", "format": "cell-based, human", "details": "37 °C, 90 min, total series", "experimental": "M21 cells (αvβ3 integrin positive) were diluted with RPMI 1640 (Gibco, Invitrogen Corporation, Paisley, UK) containing 1% glutamine (m/v), 1% bovine serum albumin (BSA) (m/v), CaCl2 (1 mM), MgCl2 (1 mM), and MnCl2 (10 mM) to a concentration of 2.0 × 10^6 cells/mL. Aliquots of 1 mL cell solution were transferred to Eppendorf tubes for incubation at 37 °C for 1 h. After addition of [^89Zr]FSC(RGDfE)3, [^89Zr]FSC(succ-RGD)3, or [^89Zr]FSC(Mal-RGD)3 (approximately 1.5 × 10^6 cpm), the cells were incubated in triplicates with either PBS with 0.5% BSA (150 μL, total series) or with 10 μM c(RGDyV) in PBS/0.5% BSA (150 μL, nonspecific series) at 37 °C for 90 min. After the incubation time the tubes were centrifuged, and incubation was stopped by removal of the medium. Then the cells were washed twice with ice-cold TRIS-buffered saline. Subsequently, the cells were incubated two times in acid wash buffer (20 mM acetate buffer, pH 4.5) at 37 °C for 5 min. Then the tubes were centrifuged, and the supernatant was collected in plastic vials (membrane bound activity). In a last step the cells were lysed by addition of 2 M NaOH, and the radioactivity associated with cells was collected in plastic vials (internalized radioligand fraction). Protein content in the NaOH fraction was determined using a spectrometric method (Bradford assay). The internalized activity was calculated and expressed as percentage of total activity per milligram protein."}, "[3]": {"details": "pH 7.4"}, "[4]": {"test": "Stability assay in 1000-fold molar excess of EDTA solution (ITLC)", "format": "physicochemical", "details": "competitor EDTA 1000-fold excess, 37 °C, n = 3", "experimental": "Determination of the stability of [^89Zr]DFO, [^89Zr]TAFC, and [^89Zr]FSC-RGD conjugates was carried out by incubating the radioligands in PBS, 1000-fold molar excess of EDTA solution with different pH (pH 7 and pH 6; radioligand vs EDTA: 25 μM vs 25 mM) as well as in human serum for 7 days at 37 °C, respectively. At selected time points three aliquots of PBS and EDTA solution were analyzed directly via ITLC, while the three serum aliquots were mixed with 500 μL of CH3CN, vortexed, and centrifuged at 20,000 rcf for 2 min prior to analysis."}, "[5]": {"tested_on": "αvβ3 integrin positive M21 and αvβ3 integrin negative M21-L tumor xenografts", "format": "in vivo, BALB/c nude mice", "details": "~5 MBq/mouse i.v., monitoring period of 24 h", "experimental": "MicroPET/CT imaging experiments were conducted on an Inveon microPET/CT scanner (Siemens Preclinical Solutions, Knoxville, USA). A group of four M21-tumor xenograft bearing BALB/c nude mice were administered with [^89Zr]FSC(succ-RGD)3 (∼5 MBq/mouse, ∼5 μg of peptide) via intravenous tail vein injection. MicroPET images were acquired under general anesthesia (isoflurane/O2) for 20 min. PET data for each mouse were recorded via static scans at 1, 4, and 24 h p.i. The microPET scans were reconstructed with Inveon Acquisition Workplace software (version 1.5; Siemens Preclinical Solutions), using a 3-dimensional fast maximum a posteriori algorithm with the following parameters: matrix, 256 × 256 × 161; pixel size, 0.4 × 0.4 × 0.8 mm; β-value of 1.5 mm resolution with uniform variance."}, "[6]": {"set-up": "species or system BALB/c nude mice", "details": "mouse, in vivo, iv", "experimental": "as §1"}, "[7]": {"details": "uptake in αvβ3 integrin positive M21 tumor"}}, "note": "Like-named read-outs stand apart in the source and are kept apart here."}
{"smiles": "C/C1=C/C(=O)N(O)CCC[C@H](NC(=O)CCC(=O)NCCCC[C@@H]2NC(=O)[C@@H](Cc3ccccc3)NC(=O)[C@H](CC(=O)O)NC(=O)CNC(=O)[C@H](CCCNC(=N)N)NC2=O)C(=O)OCC/C(C)=C\\C(=O)N(O)CCC[C@H](NC(=O)CCC(=O)NCCCC[C@@H]2NC(=O)[C@@H](Cc3ccccc3)NC(=O)[C@H](CC(=O)O)NC(=O)CNC(=O)[C@H](CCCNC(=N)N)NC2=O)C(=O)OCC/C(C)=C\\C(=O)N(O)CCC[C@H](NC(=O)CCC(=O)NCCCC[C@@H]2NC(=O)[C@@H](Cc3ccccc3)NC(=O)[C@H](CC(=O)O)NC(=O)CNC(=O)[C@H](CCCNC(=N)N)NC2=O)C(=O)OCC1", "note": "[[^68Ga]FSC(succ-RGD)3] [metal not drawn, reference compound]", "values": [{"measurement": "blood activity", "setting": "[1]", "result": "0.63 ± 0.26", "unit": "% ID/g"}, {"measurement": "uptake in the spleen", "setting": "[1]", "result": "3.27 ± 0.64", "unit": "% ID/g"}, {"measurement": "uptake in αvβ3 integrin negative M21-L tumors", "setting": "[1]", "result": "1.10 ± 0.30", "unit": "% ID/g"}]}
{"smiles": "C/C1=C/C(=O)N(O)CCC[C@H](NC(=O)CC[C@@H]2NC(=O)[C@@H](Cc3ccccc3)NC(=O)[C@H](CC(=O)O)NC(=O)CNC(=O)[C@H](CCCNC(=N)N)NC2=O)C(=O)OCC/C(C)=C\\C(=O)N(O)CCC[C@H](NC(=O)CC[C@@H]2NC(=O)[C@@H](Cc3ccccc3)NC(=O)[C@H](CC(=O)O)NC(=O)CNC(=O)[C@H](CCCNC(=N)N)NC2=O)C(=O)OCC/C(C)=C\\C(=O)N(O)CCC[C@H](NC(=O)CC[C@@H]2NC(=O)[C@@H](Cc3ccccc3)NC(=O)[C@H](CC(=O)O)NC(=O)CNC(=O)[C@H](CCCNC(=N)N)NC2=O)C(=O)OCC1", "note": "[[^89Zr]FSC(RGDfE)3, metal not drawn]", "values": [{"measurement": "internalized activity, % of total activity per milligram protein", "setting": "[2]", "result": "2.3 ± 0.3", "unit": "% cpm/mg"}, {"measurement": "logD", "setting": "[3]", "result": -3}]}
{"smiles": "C/C1=C/C(=O)N(O)CCC[C@H](NC(=O)CCC(=O)NCCCC[C@@H]2NC(=O)[C@@H](Cc3ccccc3)NC(=O)[C@H](CC(=O)O)NC(=O)CNC(=O)[C@H](CCCNC(=N)N)NC2=O)C(=O)OCC/C(C)=C\\C(=O)N(O)CCC[C@H](NC(=O)CCC(=O)NCCCC[C@@H]2NC(=O)[C@@H](Cc3ccccc3)NC(=O)[C@H](CC(=O)O)NC(=O)CNC(=O)[C@H](CCCNC(=N)N)NC2=O)C(=O)OCC/C(C)=C\\C(=O)N(O)CCC[C@H](NC(=O)CCC(=O)NCCCC[C@@H]2NC(=O)[C@@H](Cc3ccccc3)NC(=O)[C@H](CC(=O)O)NC(=O)CNC(=O)[C@H](CCCNC(=N)N)NC2=O)C(=O)OCC1", "note": "[[^89Zr]FSC(succ-RGD)3] [metal not drawn]", "values": [{"measurement": "% intact starting species by incubation time", "setting": "[4]; pH 7, 1 h", "result": "98.2 ± 0.1", "unit": "%"}, {"measurement": "% intact starting species by incubation time", "setting": "[4]; pH 7, 4 h", "result": "98.2 ± 0.1", "unit": "%"}, {"measurement": "% intact starting species by incubation time", "setting": "[4]; pH 7, 1 d", "result": "96.5 ± 0.5", "unit": "%"}, {"measurement": "% intact starting species by incubation time", "setting": "[4]; pH 7, 3 d", "result": "96.0 ± 0.4", "unit": "%"}, {"measurement": "% intact starting species by incubation time", "setting": "[4]; pH 7, 5 d", "result": "94.5 ± 0.3", "unit": "%"}, {"measurement": "% intact starting species by incubation time", "setting": "[4]; pH 7, 7 d", "result": "93.9 ± 0.7", "unit": "%"}, {"measurement": "internalized activity, % of total activity per milligram protein", "setting": "[2]", "result": "2.1 ± 0.3", "unit": "% cpm/mg"}, {"measurement": "blood activity", "setting": "[1]", "result": "0.16 ± 0.04", "unit": "% ID/g"}, {"measurement": "uptake in αvβ3 integrin negative M21-L tumors in microPET/CT", "setting": "[5]", "result": "no uptake"}, {"measurement": "visualization of αvβ3 integrin positive M21 tumors in microPET/CT", "setting": "[5]", "result": "clearly visualized over the whole monitoring period of 24 h"}]}
{"smiles": "C/C1=C/C(=O)N(O)CCC[C@H](NC(=O)CCC(=O)NCCCC[C@@H]2NC(=O)[C@@H](Cc3ccccc3)NC(=O)[C@H](CC(=O)O)NC(=O)CNC(=O)[C@H](CCCNC(=N)N)NC2=O)C(=O)OCC/C(C)=C\\C(=O)N(O)CCC[C@H](NC(=O)CCC(=O)NCCCC[C@@H]2NC(=O)[C@@H](Cc3ccccc3)NC(=O)[C@H](CC(=O)O)NC(=O)CNC(=O)[C@H](CCCNC(=N)N)NC2=O)C(=O)OCC/C(C)=C\\C(=O)N(O)CCC[C@H](NC(=O)CCC(=O)NCCCC[C@@H]2NC(=O)[C@@H](Cc3ccccc3)NC(=O)[C@H](CC(=O)O)NC(=O)CNC(=O)[C@H](CCCNC(=N)N)NC2=O)C(=O)OCC1", "note": "[[^89Zr]FSC(succ-RGD)3, metal not drawn]", "values": [{"measurement": "tissue uptake at 1 h", "setting": "[6]; activity in kidneys", "result": "6.42 ± 0.72", "unit": "%ID/g"}, {"measurement": "tissue uptake at 2 h", "setting": "[6]; activity in kidneys", "result": "5.77 ± 0.2", "unit": "%ID/g"}, {"measurement": "tissue uptake at 4 h", "setting": "[6]; activity in kidneys", "result": "5.26 ± 0.9", "unit": "%ID/g"}, {"measurement": "tissue uptake at 1 h", "setting": "[6]; activity in the bone", "result": "0.71 ± 0.05", "unit": "%ID/g"}, {"measurement": "tissue uptake at 2 h", "setting": "[6]; activity in the bone", "result": "0.79 ± 0.28", "unit": "%ID/g"}, {"measurement": "tissue uptake at 4 h", "setting": "[6]; activity in the bone", "result": "0.73 ± 0.27", "unit": "%ID/g"}, {"measurement": "tissue uptake at 2 h", "setting": "[6]; blood activity", "result": 0.15, "unit": "%ID/g"}, {"measurement": "tissue uptake at 4 h", "setting": "[6]; blood activity", "result": "0.1 ± 0.01", "unit": "%ID/g"}, {"measurement": "tissue uptake at 1 h", "setting": "[6]; uptake in the spleen", "result": "1.78 ± 0.22", "unit": "%ID/g"}, {"measurement": "tissue uptake at 4 h", "setting": "[6]; uptake in αvβ3 integrin negative M21-L tumors", "result": 0.5, "unit": "%ID/g"}, {"measurement": "tissue uptake at 1 h", "setting": "[6]; [7]", "result": "2.83 ± 0.6", "unit": "%ID/g"}, {"measurement": "tissue uptake at 2 h", "setting": "[6]; [7]", "result": "3.48 ± 0.45", "unit": "%ID/g"}, {"measurement": "tissue uptake at 4 h", "setting": "[6]; [7]", "result": "2.86 ± 0.3", "unit": "%ID/g"}, {"measurement": "logD", "setting": "[3]", "result": -2.9}]}
{"smiles": "C/C1=C/C(=O)N(O)CCC[C@H](NC(=O)CCN2C(=O)CC(SCCOCCOCCOCCOCCC(=O)NCCCC[C@@H]3NC(=O)[C@@H](Cc4ccccc4)NC(=O)[C@H](CC(=O)O)NC(=O)CNC(=O)[C@H](CCCNC(=N)N)NC3=O)C2=O)C(=O)OCC/C(C)=C\\C(=O)N(O)CCC[C@H](NC(=O)CCN2C(=O)CC(SCCOCCOCCOCCOCCC(=O)NCCCC[C@@H]3NC(=O)[C@@H](Cc4ccccc4)NC(=O)[C@H](CC(=O)O)NC(=O)CNC(=O)[C@H](CCCNC(=N)N)NC3=O)C2=O)C(=O)OCC/C(C)=C\\C(=O)N(O)CCC[C@H](NC(=O)CCN2C(=O)CC(SCCOCCOCCOCCOCCC(=O)NCCCC[C@@H]3NC(=O)[C@@H](Cc4ccccc4)NC(=O)[C@H](CC(=O)O)NC(=O)CNC(=O)[C@H](CCCNC(=N)N)NC3=O)C2=O)C(=O)OCC1", "note": "(stereo partly shown) [[^89Zr]FSC(Mal-RGD)3, metal not drawn]", "values": [{"measurement": "internalized activity, % of total activity per milligram protein", "setting": "[2]", "result": "1.6 ± 0.1", "unit": "% cpm/mg"}, {"measurement": "logD", "setting": "[3]", "result": -2.9}]}
